This assay deals with AlgW and mutants. The experiment in a line: Apparent activation parameters of AlgW and mutants (peptide agonist gradient). It counts as biochemical, Pseudomonas aeruginosa. The settings on record: peptide activator (decapeptide) gradient, substrate Abz-VLAG-pNA, Michaelis-Menten fit, means of three independent determinations; for Maximal cleavage activity: Tris pH 7.5, 150 mM NaCl, 37°C; for EC50: read-out: Half-maximal activation concn. The source says: For the enzyme mechanism of AlgW (30–389) and mutants, two internally quenched fluorescent peptide substrates incorporating the peptidase cleavage site of MucA/MucB, Abz-VLAG-pNA and Abz-TVAW-pNA, were designed and synthesized (GL Biochem Shanghai Ltd., China). In the intact peptide, the fluorescence of the anthraniloyl group is quenched by the P-nitroaniline (Abz is a fluorogenic group, and pNA is a quencher of fluorescence). This quenched fluorescence is liberated upon cleavage of peptide by 200 nM AlgW and mutants (200/3 nM for trimer), resulting in increased fluorescence that can then be monitored fluorometrically. Prior to the assay, all enzyme preparations were incubated with 10 mM agonist peptides (WVF or SVRDELRWVF) for 30 min at room temperature. All assays were placed in a buffer containing 25 mM Tris (pH 7.5) and 150 mM NaCl at 37°C for 1 h, and the final assay volume was 100 μl. The fluorescent degradation products were monitored at 60-s intervals at fluorescence wavelength—λex = 310 nm, λem = 420 nm ([41]). All data points were representative of three independent determinations and were simulated with solid lines with the formula Y = Vmax · X^h/(Km ^h + X^h) or Y = Vmax · X^h/(Khalf^h + X^h) or the Michaelis-Menten formula (Y = Vmax · X/[Km + X]). Substrate versus velocity was used to determine Km and Vmax, and agonists versus velocity was used to determine the half-maximal activation concentration and maximum activation rate of agonists. The fitting and calculation of data were carried out using Prism 7 (GraphPad, CA, USA).

The values that follow come from paper PMC8545111, “Molecular Basis of the Versatile Regulatory Mechanism of HtrA-Type Protease AlgW from Pseudomonas aeruginosa” (mBio, 2021).

B1: AlgW-R374A (protein)
chain: VGLPRQEVHVEQAPLLSRLQEGPVSYANAVSRAAPAVANLYTTKMVSKPSHPLFDDPMFRRFFGDNLPQQKRMESSLGSAVIMSAEGYLLTNNHVTAGADQIIVALRDGRETIAQLVGSDPETDLAVLKIDLKNLPAMTLGRSDGIRTGDVCLAIGNPFGVGQTVTMGIISATGRNQLGLNTYEDFIQTDAAINPGNSGGALVDAAGNLIGINTAIFSKSGGSQGIGFAIPTKLALEVMQSIIEHGQVIRGWLGVEVKALTPELAESLGLGETAGIVVAGVYRDGPAARGGLLPGDVILTIDKQEASDGRRSMNQVARTRPGQKISIVVLRNGQKVNLTAEVGLAPPPAPAPQQKQDGGE
modifications: left off: His6, C-terminal, state not stated
With B1, the Maximal cleavage activity is 5.45 ± 0.68 µM/min.

B2: AlgW-Y212A (protein)
chain: VGLPRQEVHVEQAPLLSRLQEGPVSYANAVSRAAPAVANLYTTKMVSKPSHPLFDDPMFRRFFGDNLPQQKRMESSLGSAVIMSAEGYLLTNNHVTAGADQIIVALRDGRETIAQLVGSDPETDLAVLKIDLKNLPAMTLGRSDGIRTGDVCLAIGNPFGVGQTVTMGIISATGRNQLGLNTAEDFIQTDAAINPGNSGGALVDAAGNLIGINTAIFSKSGGSQGIGFAIPTKLALEVMQSIIEHGQVIRGWLGVEVKALTPELAESLGLGETAGIVVAGVYRDGPAARGGLLPGDVILTIDKQEASDGRRSMNQVARTRPGQKISIVVLRNGQKVNLTAEVGLRPPPAPAPQQKQDGGE
modifications: left off: His6, C-terminal, state not stated
Consider B2, for which the EC50 stood at 2120 ± 620 nM and the Maximal cleavage activity came to 39.46 ± 6.17 µM/min.

B3: AlgW-E151A (protein)
chain: VGLPRQEVHVEQAPLLSRLQEGPVSYANAVSRAAPAVANLYTTKMVSKPSHPLFDDPMFRRFFGDNLPQQKRMESSLGSAVIMSAEGYLLTNNHVTAGADQIIVALRDGRETIAQLVGSDPATDLAVLKIDLKNLPAMTLGRSDGIRTGDVCLAIGNPFGVGQTVTMGIISATGRNQLGLNTYEDFIQTDAAINPGNSGGALVDAAGNLIGINTAIFSKSGGSQGIGFAIPTKLALEVMQSIIEHGQVIRGWLGVEVKALTPELAESLGLGETAGIVVAGVYRDGPAARGGLLPGDVILTIDKQEASDGRRSMNQVARTRPGQKISIVVLRNGQKVNLTAEVGLRPPPAPAPQQKQDGGE
modifications: left off: His6, C-terminal, state not stated
Regarding B3, the EC50 came out at 2990 ± 560 nM and the Maximal cleavage activity is 34.93 ± 1.87 µM/min.

B4: AlgW-E266A (protein)
chain: VGLPRQEVHVEQAPLLSRLQEGPVSYANAVSRAAPAVANLYTTKMVSKPSHPLFDDPMFRRFFGDNLPQQKRMESSLGSAVIMSAEGYLLTNNHVTAGADQIIVALRDGRETIAQLVGSDPETDLAVLKIDLKNLPAMTLGRSDGIRTGDVCLAIGNPFGVGQTVTMGIISATGRNQLGLNTYEDFIQTDAAINPGNSGGALVDAAGNLIGINTAIFSKSGGSQGIGFAIPTKLALAVMQSIIEHGQVIRGWLGVEVKALTPELAESLGLGETAGIVVAGVYRDGPAARGGLLPGDVILTIDKQEASDGRRSMNQVARTRPGQKISIVVLRNGQKVNLTAEVGLRPPPAPAPQQKQDGGE
modifications: left off: His6, C-terminal, state not stated
Consider B4, for which the EC50 was 1080 ± 500 nM and the Maximal cleavage activity came out at 60.51 ± 5.07 µM/min.

B5: AlgW-D149A (protein)
chain: VGLPRQEVHVEQAPLLSRLQEGPVSYANAVSRAAPAVANLYTTKMVSKPSHPLFDDPMFRRFFGDNLPQQKRMESSLGSAVIMSAEGYLLTNNHVTAGADQIIVALRDGRETIAQLVGSAPETDLAVLKIDLKNLPAMTLGRSDGIRTGDVCLAIGNPFGVGQTVTMGIISATGRNQLGLNTYEDFIQTDAAINPGNSGGALVDAAGNLIGINTAIFSKSGGSQGIGFAIPTKLALEVMQSIIEHGQVIRGWLGVEVKALTPELAESLGLGETAGIVVAGVYRDGPAARGGLLPGDVILTIDKQEASDGRRSMNQVARTRPGQKISIVVLRNGQKVNLTAEVGLRPPPAPAPQQKQDGGE
modifications: left off: His6, C-terminal, state not stated
Consider B5, for which the Maximal cleavage activity amounted to 8.16 ± 0.85 µM/min.
